Laboratory results: IntAct's records for PubMed 19523899

B1: Tyrosine-protein phosphatase non-receptor type 23 (Mus musculus), Q6PB44 (parent)
chain: MEAVPRMPMIWLDLKEAGDFHFQSAVKKFVLKNYGENPEAYNEELKKLELLRQNAIRVARDFEGCSVLRKYLGQLHYLQSRVPMGSGQEAAVAVTWTEIFSGKSVSHEDIKYEQACILYNLGALHSMLGAMDKRVSEEGMKVSCTHFQCAAGAFAYLREHFPQAFSVDMSRQILTLNVNLMLGQAQECLLEKSMLDNRKSFLVARISAQVVDYYKEACRALENPDTASLLGRIQKDWKKLVQMKIYYFAAVAHLHMGKQAEEQQKFGERVAYFQSALDKLNEAIKLAKGQPDTVQDALRFAMDVIGGKYNSAKKDNDFIYHEAVPALDTLQPVKGAPLVKPLPVNPTDPAVTGPDIFAKLVPMAAHEASSLYSEEKAKLLREMLAKIEDKNEVLDQFMDSMQLDPETVDNLDAYNHIPPQLMEKCAALSVRPDTVKNLVQSMQVLSGVFTDVEASLKDIRDLLEEDELQEQKLQETLGQAGAGPGPSVAKAELAEVRREWAKYMEVHEKASFTNSELHRAMNLHVGNLRLLSGPLDQVRAALPTPALTPEDKAVLQNLKRILAKVQEMRDQRVSLEQQLRELIQKDDITASLVTTDHSEMKKLFEEQLKKYDQLKVYLEQNLAAQDNVLRALTEANVQYAAVRRVLSELDQKWNSTLQTLVASYEAYEDLMKKSQEGKDFYADLESKVATLLERAQSICRAQEAARQQLLDRELKKKAPPPRPTAPKPLLSRREEGEAVEAGDTPEELRSLPPDMMVGPRLPDPFLGTTAPLHFSPGPFPSSTGPATHYLSGPLPPGTYSGPTQLMQPRAAVPMAPATVLYPAPAYTSELGLVPRSSPQHGIVSSPYAGVGPPQPVVGLPSAPPPQLSGPELAMTVRPATTTVDSVQAPISSHTAPRPNPTPALPQPCFPVPQPVPQSVPQPQPLPVPYTYSIGTKQPLPAPYTYSIGTKQHLTGPLPQHQFPPGIPTGFPVPRTGPQAQAQPQPQPQPQPQPQPQPQPQPQPQSQSQPQPQPQPQPQRPAFGPQPTQQPLPFQHPHLFPSQAPGILPPPPPTPYHFTPQPGVLGQPPPTLHTQLYPGPSQDPLPPHSGALPFPSPGPPHPHPTLAYGPAPSPRPLGPQATPVSIRGPPPASQPTPSPHLVPSPAPSPGPGPVPSRPPTAEPPPCLRRGAAAADLLSSSPESQHGGTQPPGGGQPLLQPTKVDAAEGRRPQALRLIEQDPYEHPERLQQLQQELEAFRGQLGDAGALDAIWRELQEAQEHDARGRSIAIARCYSLKNRHQDVMPYDSNRVVLRSGKDDYINASCVEGLSPYCPPLVATQAPLPGTAADFWLMVHEQKVSVIVMLVSEAEMEKQKVARYFPTERGQPMVHGALSVALSSIRTTETHVERVLSLQFRDQSLKRSLVHLHFPTWPELGLPDSPGNLLRFIQEVHAHYLHQRPLHTPIVVHCSSGVGRTGAFALLYAAVQEVEAGNGIPELPQLVRRMRQQRKHMLQEKLHLKFCHEALVRHVEQVLQRHGVPPPGKPVASVNISQKNHLPQDSQDLVLGGDVPISSIQATIAKLSIRPLGGLDSPAASLPGLVEPPGLPPASLPESTPVPSSSPPPLSSPLPEAPQPEEEPSVPEAPSLGPPSSSLELLASLTPEAFSLDSSLRGKQRMSKQNFLQAHNGQGLRAAQPTDDPLSLLDPLWTLNKT
partner: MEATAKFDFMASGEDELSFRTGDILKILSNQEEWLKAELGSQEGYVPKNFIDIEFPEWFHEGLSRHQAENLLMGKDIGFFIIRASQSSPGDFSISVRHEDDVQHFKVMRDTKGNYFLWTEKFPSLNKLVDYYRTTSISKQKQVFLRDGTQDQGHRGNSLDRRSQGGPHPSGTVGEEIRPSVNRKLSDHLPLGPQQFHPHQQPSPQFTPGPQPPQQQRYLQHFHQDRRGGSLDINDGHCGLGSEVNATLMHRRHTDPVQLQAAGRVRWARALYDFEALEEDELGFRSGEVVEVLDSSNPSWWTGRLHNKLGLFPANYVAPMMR

Variants of: B1
Conditions: with grap2_mouse Grap2, O89100

Row | Variant | effect of a mutation on the interaction
1 | P720A;R722A | disrupting interaction
2 | R722A | decreasing interaction

Second part, the variant after the results:

Row | effect of a mutation on the interaction | Variant
3 | disrupting interaction strength | K727A;P728A
4 | decreasing interaction strength | K727A
5 | decreasing interaction strength | K727H
